B1: ES52: dsRNA trigger SEQ ID NO 113; gene target Hypotethical effector (nucleic acid)
DNA: ATGTTCAAAAAATTTATTTTCCTCTCAAGCCAGGCCTTAATGGTACTTTCGAATCCTCTTTATATTGGTGATAATCATCTTCCGAGCGACCAAAATAATCCGTTCTTAATATCCTATGATTGGAAAGCTGGCTTTACAAGCGAATTCGAACTTCATGATTCCTGCAATGCAACACAGAAAAAACAGCTGCAAGACGGCCTCTCTGACGCTGTGACACTTGCTAGGCATGCTAAAGAACATATTCTTGTGAAGGGAACTGAATCACCCATATATAAGAAATATTTCGGTCAAGGTCCTACAGGATCGGTCCTGGGATGGTATGACAAAATTGCTTCTTCTGACCGAAAAGACATCCTTTTCCGTTGTGATGACCCCGATAAGAATTGCCAAACTCAACCTCAATGGGCTGGACATCACCGCGGAAAAAATGCGTCATTAGAGACAGTGATCTGCGAGCTTTCATTTCTCACTCGGCTTCCACTTGAAGCTC
B2: GS3310 (nucleic acid)
sense: CGUCGACCUCAAAAGCAGAGAAGUUGGGCGAGUUGAUUAUUGCUUCUACGGAGAAAGCCUGUAUAACUGUAGGUUCGUAGCUUUGAGCAUUCAAAAAUUUGUUGUAAACGAUUUUAGUAGAUGAGUAUUCACUUGGCAAAUGAGAGAUUUGAUCUGCUAUUGUUUGAGCGUCUGCAAAGGUUGGAAUAUCUUUCCCUACGCCAGAGAAACUUAAAACAAUAUUUUUACUACUUGACCGACUCAAUUGUGCCUUAGCCUUCUCUCCCAAUACCACAAUAUCGGCAUUGGGGUUUUCAGAGAGCAUUUUUCGAACGUGUUUACUUAAGCCUGAAUGAAUACCGCCGCACAAUCCUUUAUCUGAGCUUGCAACUACAAUCAAGUACUUUUGGUCAUCUUUU
antisense: AAAAGAUGACCAAAAGUACUUGAUUGUAGUUGCAAGCUCAGAUAAAGGAUUGUGCGGCGGUAUUCAUUCAGGCUUAAGUAAACACGUUCGAAAAAUGCUCUCUGAAAACCCCAAUGCCGAUAUUGUGGUAUUGGGAGAGAAGGCUAAGGCACAAUUGAGUCGGUCAAGUAGUAAAAAUAUUGUUUUAAGUUUCUCUGGCGUAGGGAAAGAUAUUCCAACCUUUGCAGACGCUCAAACAAUAGCAGAUCAAAUCUCUCAUUUGCCAAGUGAAUACUCAUCUACUAAAAUCGUUUACAACAAAUUUUUGAAUGCUCAAAGCUACGAACCUACAGUUAUACAGGCUUUCUCCGUAGAAGCAAUAAUCAACUCGCCCAACUUCUCUGCUUUUGAGGUCGACG
B3: GS3311 (nucleic acid)
sense: CUUCUCGGUAAUUCCGCAACAUUUUUAACCAUGACAUUCCAUUUCGUACAUGCUCUUGAUAUUCCGAUAACGUCAGCCUCUUGAAAUGCAUCACUUCCUAUGGCAGUAGUGGGCACUUGGCCGCAAAAAACUACUAGUGGUGUACCGUCAGAUAGAGCGUCCUGCAUCGGUGUUAUGACAUUUGUUGCACCAGGGCCAGAAGUAACUAGAAUCACCCCAGGAAGUCCACUAGCUCUGGCAUAGCCUUCAGCCAUAUGUCCAGCACCCUGUUCAUGUUUCGGUAGAAUAAAAUCGAAGUGCCUUGAAUUAUAAAUAGCGUCGAAAACGGGAAGAAUUGCUCCACCAGGAUAACCGAAAAUAUGUUUUACACCUUGCCGUAACAUCAUUUCGUGAAAUAU
antisense: AUAUUUCACGAAAUGAUGUUACGGCAAGGUGUAAAACAUAUUUUCGGUUAUCCUGGUGGAGCAAUUCUUCCCGUUUUCGACGCUAUUUAUAAUUCAAGGCACUUCGAUUUUAUUCUACCGAAACAUGAACAGGGUGCUGGACAUAUGGCUGAAGGCUAUGCCAGAGCUAGUGGACUUCCUGGGGUGAUUCUAGUUACUUCUGGCCCUGGUGCAACAAAUGUCAUAACACCGAUGCAGGACGCUCUAUCUGACGGUACACCACUAGUAGUUUUUUGCGGCCAAGUGCCCACUACUGCCAUAGGAAGUGAUGCAUUUCAAGAGGCUGACGUUAUCGGAAUAUCAAGAGCAUGUACGAAAUGGAAUGUCAUGGUUAAAAAUGUUGCGGAAUUACCGAGAAG
B4: GS3312 (nucleic acid)
sense: CUGCUGGUAGUGACAAGGGCACAGAACACGUCUGGGAAAUAAGCCAGAGCGUGGGCAUGAUAAUUGGUGGAAUUUUAGAAAAUUUGCUCAUGCUUAUGGGAAAAGUUCCCAGCUUAACGAGGAGGCAAGUACGAUAUAGCUGUAUGACAAGAUACUAUGACUGUAGUAAAGCUAAGAGGCUACUUGGAUAUACACCAGAAGUCCACCUGUGGGAAGGCAUAGAGAGGUCAGUUGCUUGGUUCAAAAAUCAGAGUUAAUUAUCGAAGCCCGAAUGAAUACUUCAUAUUACUAAACUUGCCCGAAUUAAAAUUCUGGCUAGCUUAGUUAUCAAAUAAAAAUUGAUAGUUAAGUUGAUCUUUCAUUGAUGAAUAUAUAAGUACUUAACCUUAUCAUUCAAU
antisense: AUUGAAUGAUAAGGUUAAGUACUUAUAUAUUCAUCAAUGAAAGAUCAACUUAACUAUCAAUUUUUAUUUGAUAACUAAGCUAGCCAGAAUUUUAAUUCGGGCAAGUUUAGUAAUAUGAAGUAUUCAUUCGGGCUUCGAUAAUUAACUCUGAUUUUUGAACCAAGCAACUGACCUCUCUAUGCCUUCCCACAGGUGGACUUCUGGUGUAUAUCCAAGUAGCCUCUUAGCUUUACUACAGUCAUAGUAUCUUGUCAUACAGCUAUAUCGUACUUGCCUCCUCGUUAAGCUGGGAACUUUUCCCAUAAGCAUGAGCAAAUUUUCUAAAAUUCCACCAAUUAUCAUGCCCACGCUCUGGCUUAUUUCCCAGACGUGUUCUGUGCCCUUGUCACUACCAGCAG
B5: GS3313 (nucleic acid)
sense: AUCGUGAAUGGAGCUGUAACUGAAACAACAGCUUUACUAAACGAAAAAUGGGACAAAAUAUUUUACACUGGCAAUACCCAAGUAGGUGUAAUAAUUGCCAAAAAAGCUGCAGAAACUCUUACACCAGUUUGCUUAGAGCUCGGGGGAAUCAAUCCGGCAAUCAUUACGAAAAAUGCAGACCCAUACCUUGCUGCUCGUCGGCUAUUAUGGGGUAAACUAAUGAAUGCUGGACAAGUUUGCAUCAGUCAAAAUUAUAUUCUUGUCGAACAAGAAGUUUUACCAAUUUUCGUAGAGCAUUUGAAAAACACUCUAAAUGAAUUCUAUCCAAAUGGUAUAAGAAAUAGUCCAGAUUUUGGAAGGAUAGUCAAUCAGCGUCAUUUUUCUAGAAUUAAAAAAAU
antisense: AUUUUUUUAAUUCUAGAAAAAUGACGCUGAUUGACUAUCCUUCCAAAAUCUGGACUAUUUCUUAUACCAUUUGGAUAGAAUUCAUUUAGAGUGUUUUUCAAAUGCUCUACGAAAAUUGGUAAAACUUCUUGUUCGACAAGAAUAUAAUUUUGACUGAUGCAAACUUGUCCAGCAUUCAUUAGUUUACCCCAUAAUAGCCGACGAGCAGCAAGGUAUGGGUCUGCAUUUUUCGUAAUGAUUGCCGGAUUGAUUCCCCCGAGCUCUAAGCAAACUGGUGUAAGAGUUUCUGCAGCUUUUUUGGCAAUUAUUACACCUACUUGGGUAUUGCCAGUGUAAAAUAUUUUGUCCCAUUUUUCGUUUAGUAAAGCUGUUGUUUCAGUUACAGCUCCAUUCACGAU
B6: GS3314 (nucleic acid)
sense: CGAGGUUCAUGGUAGUUCCCUAUCUAAGGAUGAUCUUCGAGAUUUGAGAAAUAUUGACCUCUCAGACUUUUCCUACCGACAGCCCUAUAUGCAAGAAAGAAGAGACGCCGUUGGCCAAAGAGGAAACAUAAGUAAUAGAGGAAGAGGAAGGGUGAGAGGUAUAGGAAGGGAUCCAAACGUGGACCUUCCCCAACCCUUAAGUAGUCAACCUUUAAGGAGGGACGAACAAGCAUUUCAAAGGCAACUAGCAGUCCAAUCCUCUCAGUCUGUCACGACAAGGAACUCCGUCCAUCAAAAUACAACACCAGCAUCGCAAAUAUCAAAUAAUACUCCAAAAUCACAGUCUCAAGUAACAAGAUCCCCCCAGACUUCUAAUAACCUUGAAAGUGCAAACAUU
antisense: AAUGUUUGCACUUUCAAGGUUAUUAGAAGUCUGGGGGGAUCUUGUUACUUGAGACUGUGAUUUUGGAGUAUUAUUUGAUAUUUGCGAUGCUGGUGUUGUAUUUUGAUGGACGGAGUUCCUUGUCGUGACAGACUGAGAGGAUUGGACUGCUAGUUGCCUUUGAAAUGCUUGUUCGUCCCUCCUUAAAGGUUGACUACUUAAGGGUUGGGGAAGGUCCACGUUUGGAUCCCUUCCUAUACCUCUCACCCUUCCUCUUCCUCUAUUACUUAUGUUUCCUCUUUGGCCAACGGCGUCUCUUCUUUCUUGCAUAUAGGGCUGUCGGUAGGAAAAGUCUGAGAGGUCAAUAUUUCUCAAAUCUCGAAGAUCAUCCUUAGAUAGGGAACUACCAUGAACCUCG
B7: GS3317 (nucleic acid)
sense: CAGGACUGUCCAGUUAGAUCUAGAGUCAAAAUGCCCAAAUCAUCCAAAAAGUAAGGUGGUAUAAGAAGAAGCUUAACGUUUAUAGACGUAACUGAAUCUCGGAAGAACAGCUCUUUCCUAGCAAGCAAGUAGUUGUGAAAUUACCUGCUCCUAGGUUUAUUUUUUAUUUUCAGGUGGAAUAUUGAUGAUCGCUGGAUCCACAAAAUGUAAAUUAAAAAAAUAAAAACAAAUAUCUGGUGACUGAAGGAUUUCAUGUAGUGACUAAACGUCAGUACAAGUCACAGAGUACUGAUCAAAACUACAGAAUUAUAUCUCGACGUCUUCCCUGAAGAUGAUAAAAGAUUCACCCACAACAUAAAGCUUUCAUUAUAUAU
antisense: AUAUAUAAUGAAAGCUUUAUGUUGUGGGUGAAUCUUUUAUCAUCUUCAGGGAAGACGUCGAGAUAUAAUUCUGUAGUUUUGAUCAGUACUCUGUGACUUGUACUGACGUUUAGUCACUACAUGAAAUCCUUCAGUCACCAGAUAUUUGUUUUUAUUUUUUUAAUUUACAUUUUGUGGAUCCAGCGAUCAUCAAUAUUCCACCUGAAAAUAAAAAAUAAACCUAGGAGCAGGUAAUUUCACAACUACUUGCUUGCUAGGAAAGAGCUGUUCUUCCGAGAUUCAGUUACGUCUAUAAACGUUAAGCUUCUUCUUAUACCACCUUACUUUUUGGAUGAUUUGGGCAUUUUGACUCUAGAUCUAACUGGACAGUCCUG

Tested on: E. necator
Assay: Leaf disc assay, dry inoculum (settling tower), decrease in disease severity / hyphal growth (Example 2)
Conditions: decrease in disease severity (hyphal growth) relative to untreated control, value ± SE; for % decrease =/− SE TP1: time point 1 (untreated control hyphal growth ≥50%); for % decrease =/− SE TP2: time point 2

Molecule | % decrease =/− SE TP1 | % decrease =/− SE TP2
B1 | 6 ± 1% | 6 ± 2%
B2 | 22 ± 8% | 11 ± 8%
B3 | 29 ± 7% | 24 ± 7%
B4 | 13 ± 4% | 19 ± 6%
B5 | 9 ± 9% | 13 ± 9%
B6 | 17 ± 8% | 12 ± 8%
B7 | 21 ± 9% | 17 ± 9%

Source: patent US12077763B2, “RNA-based control of powdery mildew” (Greenlight Biosciences, Inc., priority 2021, dated 2024)
